Laboratory results: patent publication US20220364055A1 (Novartis, published 2022)

Target: T1, BCMA (TNFRSF17) (human, UniProt Q02223 1-184, limits assumed)
T1 construct: Member of a commercial human plasma membrane protein array; the construct is not described
T1 sequence (looked up): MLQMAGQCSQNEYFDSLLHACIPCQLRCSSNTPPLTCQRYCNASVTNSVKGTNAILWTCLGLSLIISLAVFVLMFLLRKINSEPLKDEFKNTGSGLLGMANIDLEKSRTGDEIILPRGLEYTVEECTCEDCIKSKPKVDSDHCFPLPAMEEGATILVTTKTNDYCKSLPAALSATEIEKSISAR
Assay: commercial human plasma membrane protein array

B1: anti-human BCMA single chain antibody variable fragment (scFv) (PI61) (scFv)
scFv: QVQLQESGGGVVQPGRSLRLSCAASGFTFSSYGMHWVRQAPGKGLEWVAVISYDGSNKYYADSVKGRFTISRDNSKNTLYLQMNSLRAEDTAVYYCGGSGYALHDDYYGLDVWGQGTLVTVSSGGGGSGGGGSGGGGSQSALTQPASVSGSPGQSITISCTGTSSDVGGYNYVSWYQQHPGKAPKLMIYDVSNRPSGVSNRFSGSKSGNTASLTISGLQAEDEADYYCSSYTSSSTLYVFGSGTKVTVL
notes: also called PI61 scFv
**Q.** Does B1 bind?
**A.** binds
